Assay results taken from article PMC7076015.

Experiments:
MBP-KPNA7(E344Q) (human) [1] = target: MBP-KPNA7(E344Q) (human) (UniProt A9QM74)
MBP-KPNA7(E344Q) (human) [2] = target: MBP-KPNA7(E344Q) (human) (UniProt A9QM74); assay: pull-down; MBP fusion proteins on amylose resin (1 μg/μl), GST-GFP-NLS constructs in solution (250 nM or indicated concentrations) with Imp-β (250 nM); 2 hrs at 4 °C, 20 mM Tris pH 8, 200 mM NaCl, 1 mM EDTA, 1 mM DTT, 0.05% Triton X-100; western blot
MBP-KPNA7(E344Q) (human) [3] = target: MBP-KPNA7(E344Q) (human) (UniProt A9QM74); remark: listed apart in the source

Chain of MBP-KPNA7(E344Q) (human) (A9QM74 whole entry E344Q, the tested form may be a part): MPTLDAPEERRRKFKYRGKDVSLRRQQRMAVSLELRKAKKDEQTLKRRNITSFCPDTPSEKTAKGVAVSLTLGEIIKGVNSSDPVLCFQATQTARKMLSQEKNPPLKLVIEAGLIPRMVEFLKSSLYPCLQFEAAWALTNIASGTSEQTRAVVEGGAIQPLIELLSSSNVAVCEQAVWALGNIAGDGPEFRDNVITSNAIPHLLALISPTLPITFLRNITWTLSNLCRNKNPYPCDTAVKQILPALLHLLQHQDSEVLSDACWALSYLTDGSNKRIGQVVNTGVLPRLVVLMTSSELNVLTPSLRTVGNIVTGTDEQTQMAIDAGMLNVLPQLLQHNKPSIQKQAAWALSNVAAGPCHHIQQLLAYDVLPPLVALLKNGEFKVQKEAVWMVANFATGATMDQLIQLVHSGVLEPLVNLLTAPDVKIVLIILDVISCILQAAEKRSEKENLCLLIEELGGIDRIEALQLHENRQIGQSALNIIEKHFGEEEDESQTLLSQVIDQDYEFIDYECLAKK
Chain of GST-GFP-hnRNP U monopartite NLS (domain or fragment) (Q00839 2-825): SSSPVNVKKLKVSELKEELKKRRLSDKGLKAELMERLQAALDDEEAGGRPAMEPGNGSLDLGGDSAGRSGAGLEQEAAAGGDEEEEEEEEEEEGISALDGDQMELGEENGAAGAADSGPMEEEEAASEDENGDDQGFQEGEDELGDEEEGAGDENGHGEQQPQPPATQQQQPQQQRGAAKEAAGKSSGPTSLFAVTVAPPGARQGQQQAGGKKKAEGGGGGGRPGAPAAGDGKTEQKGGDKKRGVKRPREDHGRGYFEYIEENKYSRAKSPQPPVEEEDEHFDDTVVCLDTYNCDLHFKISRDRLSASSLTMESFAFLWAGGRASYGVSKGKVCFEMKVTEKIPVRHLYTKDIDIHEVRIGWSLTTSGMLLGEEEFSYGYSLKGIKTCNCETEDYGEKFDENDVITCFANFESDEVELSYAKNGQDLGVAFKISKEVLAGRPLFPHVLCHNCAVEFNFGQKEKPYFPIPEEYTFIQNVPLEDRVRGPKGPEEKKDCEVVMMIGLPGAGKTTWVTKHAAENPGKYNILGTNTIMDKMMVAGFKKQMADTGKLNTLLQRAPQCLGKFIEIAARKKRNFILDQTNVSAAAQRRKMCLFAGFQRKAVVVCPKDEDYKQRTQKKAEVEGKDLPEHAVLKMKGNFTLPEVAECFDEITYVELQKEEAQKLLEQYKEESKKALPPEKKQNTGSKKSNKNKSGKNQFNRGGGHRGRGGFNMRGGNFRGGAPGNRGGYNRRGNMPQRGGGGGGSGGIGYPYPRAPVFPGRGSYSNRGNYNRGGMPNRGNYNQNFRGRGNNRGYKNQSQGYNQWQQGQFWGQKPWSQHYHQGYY

| Substance | nuclear import of GST-GFP-hnRNP U-mNLS in digitonin-permeabilized HeLa cells, reduction compared to WT KPNA7 (MBP-KPNA7(E344Q) (human) [1]) [%] | fold less binding than WT or P339A KPNA7 (MBP-KPNA7(E344Q) (human) [2]) [fold] | nuclear import of GST-GFP-NLS in digitonin-permeabilized HeLa cells, reduction compared to wild-type KPNA7 (MBP-KPNA7(E344Q) (human) [3]) [%] |
| --- | --- | --- | --- |
| GST-GFP-hnRNP U monopartite NLS (domain or fragment) | 30 | 8 | – |
| GST-GFP-SV40-NLS (domain or fragment) | – | – | 20 |
